This note sets out measurements from the supplement of paper PMC9170038.

This series concerns MS2 coat protein. The experiment in a line: apparent KD of MS2 coat protein; designed switch direction (-1 OFF switch, 1 ON switch): -1; higher = weaker reporter binding. In a few lines:
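The buffer was Tris-HCl pH 7.5 with KCl, MgCl2, BSA, DTT, tRNA and Tween-20. In it, SNAP-549-labelled MS2 coat protein was titrated in doubling steps from 0.7 or 1.5 nM to 3 µM over chip-bound RNA switches transcribed by stalled E. coli RNA polymerase on Illumina chips. Apparent KD is the per-design median over clusters of curve fits to normalised fluorescence.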

Setting [1] is: input ligand: microRNA oligo, concentration not stated.
Setting [2] is: Eterna round: R95, input ligand: microRNA oligo, concentration not stated.
[3] abbreviates: Eterna round: R95, input ligand: FMN 200 uM.
Setting [4] is: Eterna round: R95, input ligand: none.

On to “ACUGUUUGAUACCUCUUAUACAUGAGGAUCACCCAUGUUAUCGAGGAUAUGCAUUAGAGUGGUUAGCAGAAGGCGAUGUAAUUG [JR_ExcNG3_Sub032] (Eterna round: R96, puzzle: Exclusion NG 3)”, for which the “apparent KD of MS2 coat protein” value runs as follows: (input ligand: FMN 200 uM) 30.8 nM; under setting [1], 12.1 nM; (input ligand: none) 13.5 nM.

As to “GUCAGCUCGUGAGGAUAUACAUGAGGAUCACCCAUGUGAUCAAUAGCAGCUUCGGCUGCAUUAAUGUAGAAGGCACGAGCUGAU [ENG2/5-A2] (Eterna round: R96, puzzle: Exclusion NG 2)”, the “apparent KD of MS2 coat protein” value is, setting by setting: (input ligand: FMN 200 uM) 10.1 nM; under setting [1], 166 nM; (input ligand: none) 203 nM.

As for “CAGACACAUGAGGAUCACCCAUGUGAGGAUAUGCGUACGUUGUCCGUAGGCGACGUGCGCAGAAGGCACAAAGG [JL-ex1-3.09 Eli mod] (puzzle: Exclusion 1)”, the “apparent KD of MS2 coat protein” value under setting [2] was 52.7 nM.

In the case of “ACAGCGUGAGGAUAUACAUGAGGAUCACCCAUGUGUGGCAGGUUAUCCUGUCAUAAGUGUAGAAGGCACGCUGU [Exclusion 3 - Oddities v.6 ( A small slide from ms2 to fmn)] (puzzle: Exclusion 3)”, the “apparent KD of MS2 coat protein” value under setting [2] was found to be 37.2 nM.

For “CUGAGCUCAGGAUAUACAUGAGGAUCACCCAUGUGUUCCUGCGACGUUAGUUGCACAUGUAGAAGGGAGUUCGG [Less Extended Mod of JL - ex3-3.35 Brourd mod] (puzzle: Exclusion 3)”, under setting [2], the “apparent KD of MS2 coat protein” value came out at 218 nM.

For the sequence “ACCUCACAUGAGGAUCACCCAUGUCAGGAUAUUCAAACAGGCGAAACUCCGCCUUCUCGAAGAAGGGACAUUAA [Israon] (Eterna round: R96, puzzle: Exclusion 1)”, the “apparent KD of MS2 coat protein” value is, setting by setting: (input ligand: FMN 200 uM) 82.1 nM; under setting [1], 14.6 nM; (input ligand: none) 17.7 nM.

Turning to “UCCUUACUGGUCAGGAUAUACAGUCGCGGGUGGGUGUAGAAGGGACAUGAGGAUCACCCAUGUACGUUACAGCC [alecazam54i] (Eterna round: R97, puzzle: Brourd's mod of Exclusion 4)”, the “apparent KD of MS2 coat protein” value runs as follows: (input ligand: FMN 200 uM) 27.6 nM; (input ligand: none) 30.2 nM.

“CCAAAGUCAGGAUAUGUGCGUUAAAAGCCGUACGUAACGACACAGAAGGGACAUGAGGAUCACCCAUGUUGGUG [Eternabot (Original) Solution 13] (Eterna round: R97, puzzle: Exclusion 4)”: the “apparent KD of MS2 coat protein” value reads like this: (input ligand: FMN 200 uM) 96.7 nM; (input ligand: none) 979 nM.

With “UUUAAUUUUUUUUUUUUACAAGCUUUUUGCUCGUCUUAUACAUGAGGAUCACCCAUGUGGAUGGAGGAUAAAUUAUC [JMF 31] (puzzle: Sensor v3, turn-off variant 2)”, the “apparent KD of MS2 coat protein” value turned out to be 20.1 nM under setting [3], 18.7 nM under setting [2] and 16.2 nM under setting [4].

Take “AAACUGAGGCAAAGCUUUAGUCGUACAUGAGGAUCACCCAUGUAGGAUAUGGUAGGCAAAGCUUACCAGAAGGACAGAGUGAUC [Mat - Exclusion NG 3 - Mod of JL - D57] (Eterna round: R96, puzzle: Exclusion NG 3)”: the “apparent KD of MS2 coat protein” value (input ligand: FMN 200 uM) is 251 nM, the “apparent KD of MS2 coat protein” value under setting [1] was found to be 487 nM and the “apparent KD of MS2 coat protein” value (input ligand: none) came to 344 nM.

With “UUUUUUUUGGUAAGGAUAUGAUGCAGGAAACUGCGUCAGAAGGUACAUGAGGAUCACCCAUGUUAAUUUUUUUU [Explosion 11 - Jieux - Brourd's mod of Exclusion 4] (Eterna round: R97, puzzle: Brourd's mod of Exclusion 4)”, the “apparent KD of MS2 coat protein” value is, setting by setting: (input ligand: FMN 200 uM) 23 nM; (input ligand: none) 18.6 nM.

Turning to “AAGUCCUUGUGGACACAUGAGGAUCACCCAUGUGCGGUCAGCGAGGAUAUCGGUCUAUAAUGUGACGAGAAGGCGCGGACCGAU [Ex NG3 #61] (Eterna round: R96, puzzle: Exclusion NG 3)”, the “apparent KD of MS2 coat protein” value (input ligand: FMN 200 uM) amounted to 26.2 nM, the “apparent KD of MS2 coat protein” value under setting [1] was determined as 15.3 nM and the “apparent KD of MS2 coat protein” value (input ligand: none) worked out at 21.3 nM.

Turning to “CCUUAACAUGAGGAUCACCCAUGUGAGGAUAUGAUGCAGCAGUGGUCUACGCUGUGCAUCAGAAGGUACAUGGU (puzzle: Exclusion 1)”, the “apparent KD of MS2 coat protein” value under setting [2] was determined as 38.9 nM.

As to “AAAGAAGAAGUCAGGAUAUAGUUAAAGAAGACCGACUAGAAGGGACAUGAGGAUCACCCAUGUGUCAGUGGGUA [Lasoaned] (puzzle: Brourd's mod of Exclusion 4)”, the “apparent KD of MS2 coat protein” value by setting is: under setting [3], 279 nM; under setting [2], 77.6 nM; under setting [4], 133 nM.

Consider “CGAUAGAUAGGAUAUAUAAUUGGAAUUCACCUUGGGCGGCUACAUGAGGAUCACCCAUGUAGAAGGGUCUUCGA [Eternabot (L1) Solution 80] (Eterna round: R97, puzzle: Exclusion 2)”, for which the “apparent KD of MS2 coat protein” value reads like this: (input ligand: FMN 200 uM) 16.3 nM; (input ligand: none) 18.5 nM.

Regarding “GACCUAUAGGUAGGAUAUCAUUGCGAUUAGCUAUGAGAAGGACCACAUGAGGAUCACCCAUGUCCUCCAAUUAACCAUUUGGUC [Fiskers ExNg1 - 4] (Eterna round: R96, puzzle: Exclusion NG 1)”, the “apparent KD of MS2 coat protein” value was 239 nM (input ligand: FMN 200 uM), 69.6 nM under setting [1] and 86.7 nM (input ligand: none).

For the sequence “UUAUUAUAUGAAGGAUAUACUUAACAUGAGGAUCACCCAUGUGGUGUUGUGAGUGAGUGAGUUUAGUAGAAGGUCAAUGAUUUU [JMF's solution 72] (Eterna round: R96, puzzle: Exclusion NG 2)”, the “apparent KD of MS2 coat protein” value by setting is: (input ligand: FMN 200 uM) 1490 nM; under setting [1], 186 nM; (input ligand: none) 428 nM.

Consider “GCGCCAUCGUGAGAUGGCGUAACGACAUGAGGAUCACCCAUGUAGGAUAUCGAUUGCUUUGCAGUCGAGAAGGGCAAGGUAAGU [JL ENG3 3.83] (Eterna round: R96, puzzle: Exclusion NG 3)”, for which, under setting [1], the “apparent KD of MS2 coat protein” value worked out at 24.3 nM.

As for “CGGCGGGCAGGAUAUGGAAAUAAUAACAUGAGGAUCACCCAUGUAAAUAAAUGGGAAUAACCAGAAGGGCUUGUUG [-18.2, -17.7 kcal, A 37%] (Eterna round: R97, puzzle: Exclusion 5)”, the “apparent KD of MS2 coat protein” value came out at 49.7 nM (input ligand: FMN 200 uM) and 90.9 nM (input ligand: none).

For “AUCGUGCAGCUUUGCUGUACGAGUACAUGAGGAUCACCCAUGUAGGAUAUGGUACGCUUUGCGUGCUAGAAGGAUAUGAGUAGG [EX ENG3 1.42] (Eterna round: R96, puzzle: Exclusion NG 3)”, the “apparent KD of MS2 coat protein” value was 84.3 nM (input ligand: FMN 200 uM), 43 nM under setting [1] and 48.3 nM (input ligand: none).

Regarding “UCUUACUGAGGAUAUACUUAGAUUUACAUGAGGAUCACCCAUGUUCCUCUAUGUAUAUAUGUAGAAGGCAGAAGAU [Mat - Exclusion 5 - JL Mod - D47] (Eterna round: R97, puzzle: Exclusion 5)”, the “apparent KD of MS2 coat protein” value was determined as 292 nM (input ligand: FMN 200 uM) and 35.6 nM (input ligand: none).

Turning to “AAGAAACAUGAGGAUCACCCAUGUGAGGAUAUGACUAAGAAAAGAAAAGAAAGAAGAGUCAGAAGGCACAAAGG [salish99-ex1_r3_068] (puzzle: Exclusion 1)”, the “apparent KD of MS2 coat protein” value came out at 215 nM under setting [3], 128 nM under setting [2] and 189 nM under setting [4].

In the case of “CCAUCGUGUGUGAGGAUAUGCUGGUCCUUGGAUCAGCAGAAGGCACAUGAGGAUCACCCAUGUGAAGACGGUGG [JL bmx4 3.22] (puzzle: Brourd's mod of Exclusion 4)”, the “apparent KD of MS2 coat protein” value was determined as 48.7 nM under setting [3], 17.4 nM under setting [2] and 24.2 nM under setting [4].

In the case of “AGUUGGCGAGGAUAUACAUGAGGAUCACCCAUGUGAGAGAAAAAAGUGAGGAAGAAAAGUAGAAGGCGCUGACU [salish99_ex3_r3_039] (puzzle: Exclusion 3)”, the “apparent KD of MS2 coat protein” value reads like this: under setting [3], 313 nM; under setting [2], 46.3 nM; under setting [4], 60.4 nM.

With “CGUGUCUUUCACGUGAGUGGUGGGUGCAACAGGUGGGAAACAUGAGGAUCACCCAUGUCCUCAUUUGCUCGUCUUAU [Grok-var2-02] (puzzle: Sensor v3, turn-off variant 2)”, the “apparent KD of MS2 coat protein” value reads like this: under setting [3], 686 nM; under setting [2], 457 nM; under setting [4], 572 nM.

Consider “GCAGGAUAAGUUAGGAUAUACCUAUGGAUACAUAGGUAGAAGGGACAUGAGGAUCACCCAUGUGACUCACCUGC [Fiskers BMX 4 - 63] (puzzle: Brourd's mod of Exclusion 4)”, for which the “apparent KD of MS2 coat protein” value was determined as 33.5 nM under setting [3], 18.4 nM under setting [2] and 22.4 nM under setting [4].

Turning to “CCAUCGUGUGUGAGGAUAUGCUGGUCCUUGGAUCAGCAGAAGGCACAUGAGGAUCACCCAUGUGAAAACGGUGG [Mat - Exclusion 4 - JL Mod - D86] (puzzle: Brourd's mod of Exclusion 4)”, the “apparent KD of MS2 coat protein” value reads like this: under setting [3], 67 nM; under setting [2], 22.3 nM; under setting [4], 23.9 nM.

As to “UCCAAGACAGGAUAUCUAGAGCCAAACAUGAGGAUCACCCAUGUGAAUCUCAGCAAACGCAGAGAAGGGUCAAAAU [Orisinxe] (puzzle: Exclusion 5)”, the “apparent KD of MS2 coat protein” value came out at 30.1 nM under setting [3], 23.2 nM under setting [2] and 30.9 nM under setting [4].

Take “GACCGGACGUGGUCAGGUAACAUGAGGAUCACCCAUGUAGGUCUAAGAACAAGCCUUUUGUACGCUCGUCUUAUAUU [JR_SV3TOV1_Sub060] (puzzle: Sensor v3, turn-off variant 1)”: the “apparent KD of MS2 coat protein” value is 46.1 nM under setting [3], 46.8 nM under setting [2] and 55.8 nM under setting [4].

Turning to “CCCGUGUUAGGAUAUACGGCACACCUGCCAGCAGGUGUAUAGUAGAAGGAACAUGAGGAUCACCCAUGUAUAGC [Rizausma] (puzzle: Exclusion 4)”, the “apparent KD of MS2 coat protein” value under setting [2] was 34.6 nM.
